± gives the standard deviation of the averaged measurements.

These results are taken from the supplement of paper PMC10126150.

The subject of this data set is ATP. Nature of the data set: switch fluorescence ratio, 500 uM ATP over buffer (Cy3 cluster intensity, sum of 5 cycles each) (fold (ratio)); higher = stronger signal-on switching upon ATP binding; sequences stand for … in TCGTCGGCAGCGTCAGATGTGTATAAGAGACAGTTTTTTTTTTTTTTTTTTTTTTTTT…TC. The settings on record: aptamer strand: ATP DNA aptamer (quencher-CACCTGGGGGAGTATTGCGGAGGAAGG + anchor), 100 nM annealed; ATP concentration: 500 uM. Put shortly: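 Exposure to 500 uM ATP lasted 15 min at 22 °C before imaging, and a selection-buffer image was taken beforehand, for Cy3-labelled switching-strand clusters on a modified Illumina MiSeq flow-cell annealed to 100 nM quencher-labelled ATP aptamer. Five buffer/ATP cycles were run with NaOH stripping and re-annealing between them. The fluorescence ratio per cluster is summed target-cycle over summed buffer-cycle Cy3 intensity, averaged per switch-domain sequence. Clusters outside 100-1000 RFU were excluded.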
Regarding TCAGTCTTTT, the switch fluorescence ratio stood at 0.998 ± 0.016.

GGGATGGGGG: the switch fluorescence ratio came out at 1 ± 0.043.

As to CGCTGTAGGT, the switch fluorescence ratio was found to be 1.02 ± 0.0058.

Consider GGCATTAGGT, for which the switch fluorescence ratio was 0.977 ± 0.042.

In the case of GTTTTTGCGG, the switch fluorescence ratio was found to be 0.9784 ± 0.0044.

Regarding CACTAGAGTG, the switch fluorescence ratio was 1.021 ± 0.0063.

Regarding AGGCGCAGGT, the switch fluorescence ratio is 1.01 ± 0.021.

For TGGGTTTTTG, the switch fluorescence ratio came to 1.01 ± 0.039.

Turning to TATGGTTTCC, the switch fluorescence ratio worked out at 1.03 ± 0.05.

For TCTTGGGGAG, the switch fluorescence ratio amounted to 0.9815 ± 0.0083.

With TGATGTGGGG, the switch fluorescence ratio was found to be 0.97 ± 0.029.

Take AAAAAAAGGC: the switch fluorescence ratio stood at 0.998 ± 0.042.

In the case of TTTATCAGAC, the switch fluorescence ratio stood at 1.07 ± 0.059.

For TGGGTTTTTA, the switch fluorescence ratio was 0.9442 ± 0.0014.

For TGGGGAATGT, the switch fluorescence ratio was found to be 1.01 ± 0.042.

As to GAGGTGGGGG, the switch fluorescence ratio was found to be 0.993 ± 0.029.

Consider GGGCTAGTCA, for which the switch fluorescence ratio is 0.965 ± 0.019.

For GGGGGATCTT, the switch fluorescence ratio turned out to be 1 ± 0.03.

With GGTTTTGAGA, the switch fluorescence ratio was determined as 1.02 ± 0.029.

Take CGCGGAGTGA: the switch fluorescence ratio was 1.002 ± 0.01.

Consider GGTATTCAGC, for which the switch fluorescence ratio was 0.957 ± 0.052.

Take ATATTCGCGG: the switch fluorescence ratio came to 1.01 ± 0.015.

Take TGGAAAAGGT: the switch fluorescence ratio was 1.0134 ± 0.00089.

As to ATGGGGGACT, the switch fluorescence ratio was 1.02 ± 0.051.

Regarding TGTTCCGGGA, the switch fluorescence ratio worked out at 1.04 ± 0.023.

Turning to TTTCGTTGAA, the switch fluorescence ratio worked out at 0.9964 ± 0.0069.

On to AAGTCCCAGC, for which the switch fluorescence ratio is 0.995 ± 0.048.

Consider CGCGGCGGGT, for which the switch fluorescence ratio came to 1.02 ± 0.034.

As for AAGTCGTCCG, the switch fluorescence ratio amounted to 0.985 ± 0.044.

For AGTTTTACAG, the switch fluorescence ratio amounted to 1.01 ± 0.02.

For GCAGGGGAAG, the switch fluorescence ratio amounted to 0.99 ± 0.019.

Consider TTTCGATGGT, for which the switch fluorescence ratio came out at 0.959 ± 0.019.

For the sequence GGGAATTATA, the switch fluorescence ratio is 0.984 ± 0.018.

Take ATGAGGGTAG: the switch fluorescence ratio turned out to be 1.02 ± 0.034.

On to TAAGAGGGGA, for which the switch fluorescence ratio was found to be 1.01 ± 0.027.

TGGGATTTGT: the switch fluorescence ratio is 0.9881 ± 0.0029.

As for AATGAAGTCG, the switch fluorescence ratio was determined as 0.997 ± 0.064.

Regarding AATAAATAGG, the switch fluorescence ratio worked out at 0.9953 ± 0.0053.

Take GAATTGTACC: the switch fluorescence ratio was determined as 1.03 ± 0.028.

Turning to TTTCTTAGAG, the switch fluorescence ratio was found to be 0.992 ± 0.038.

On to CTAGGGGGTA, for which the switch fluorescence ratio was 0.971 ± 0.035.

On to AGAGACGCTT, for which the switch fluorescence ratio is 1.03 ± 0.027.

Turning to GTGCTGGTTT, the switch fluorescence ratio worked out at 1.05 ± 0.14.

On to CGATGACATG, for which the switch fluorescence ratio was 0.9877 ± 0.0082.

As for GTATACATTG, the switch fluorescence ratio was found to be 1.02 ± 0.027.

TCGGTTGGGT: the switch fluorescence ratio worked out at 0.984 ± 0.038.

For the sequence GGGTACGAGT, the switch fluorescence ratio came out at 0.9314 ± 0.0031.

Take TGCTGAGTAG: the switch fluorescence ratio is 0.9785 ± 0.0036.

In the case of TAGGTAGGCA, the switch fluorescence ratio came to 1 ± 0.028.

As for GGGAGTTAAT, the switch fluorescence ratio turned out to be 0.97 ± 0.019.

With GATTGCTGGT, the switch fluorescence ratio is 0.9513 ± 0.0046.

As to ACAGGTTGGT, the switch fluorescence ratio came out at 1.03 ± 0.018.

As for AGTTGAAGGG, the switch fluorescence ratio turned out to be 0.973 ± 0.018.

For the sequence AATGTTACGG, the switch fluorescence ratio was determined as 1.061 ± 0.0098.

In the case of ATTATTAAGT, the switch fluorescence ratio was 0.987 ± 0.025.

Turning to GTTGTTTGGG, the switch fluorescence ratio amounted to 0.99 ± 0.034.

For TAAGGGGGT, the switch fluorescence ratio was 1 ± 0.031.

Regarding CAGATTGATG, the switch fluorescence ratio worked out at 0.983 ± 0.043.

Turning to TTGACATCCC, the switch fluorescence ratio was determined as 1.07 ± 0.032.

Take ATGGTTATGC: the switch fluorescence ratio came to 1.03 ± 0.051.

In the case of GGGTAGAAAA, the switch fluorescence ratio was determined as 1.01 ± 0.043.

For CGGGTATGGG, the switch fluorescence ratio turned out to be 0.984 ± 0.03.

As to TATAGGATT, the switch fluorescence ratio stood at 0.986 ± 0.015.

For the sequence TGGGTGACGA, the switch fluorescence ratio stood at 1.01 ± 0.024.

For GAGCGGCGGG, the switch fluorescence ratio is 0.996 ± 0.026.

Regarding AGAGTGCTTC, the switch fluorescence ratio worked out at 0.999 ± 0.028.
